Columns and labels:
HeLa Kyoto [1] = assay: solubility in G1/S (NP-40 vs SDS abundance) (log2 ratio); higher = more soluble; settings: cell cycle stage: G1/S
HeLa Kyoto [2] = assay: melting temperature (median over replicates), in situ; higher = more thermally stable
HeLa Kyoto [3] = assay: solubility change mitosis vs G1/S (difference of NP-40 vs SDS log2 ratios) (log2 ratio difference); higher = more soluble in mitosis
HeLa Kyoto [4] = assay: thermal stability score vs G1/S (z-score of summed log2 fold changes over temperatures); higher = more thermally stable than in G1/S
[5] = cell cycle stage: early G1 (4.5 h after nocodazole release)
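Throughout, for melting temperature (median over replicates), in situ: HeLa Kyoto cells synchronized by double thymidine or nocodazole block, proteins quantified by TMT10plex mass spectrometry, three independent biological replicates.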
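Throughout, for solubility change mitosis vs G1/S (difference of NP-40 vs SDS log2 ratios): synchronized HeLa Kyoto cells (double thymidine block for G1/S, nocodazole release for mitosis), protein amounts in NP-40 versus SDS lysates quantified by mass spectrometry, three biological replicates.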
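Throughout, for solubility in G1/S (NP-40 vs SDS abundance): HeLa Kyoto cells arrested at G1/S by double thymidine block, proteins quantified by TMT10plex mass spectrometry in mild NP-40 versus SDS extracts, three biological replicates.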
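Throughout, for thermal stability score vs G1/S (z-score of summed log2 fold changes over temperatures): synchronized HeLa Kyoto cells, proteins quantified by TMT10plex mass spectrometry, three biological replicates, mitosis taken 0.5 h after nocodazole release, G1/S directly after double thymidine block.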

Substance	solubility in G1/S (log2) (HeLa Kyoto [1])	melting temperature (HeLa Kyoto [2]; cell cycle stage: G1/S) [°C]	melting temperature (HeLa Kyoto [2]; cell cycle stage: mitosis) [°C]	solubility change mitosis (log2) (HeLa Kyoto [3])	thermal stability score (HeLa Kyoto [4]; [5])	thermal stability score (HeLa Kyoto [4]; cell cycle stage: mitosis)
MAAPRVFPLSCAVQQYAWGKMGSNSEVARLLASSDPLAQIAEDKPYAELWMGTHPRGDAKILDNRISQKTLSQWIAENQDSLGSKVKDTFNGNLPFLFKVLSVETPLSIQAHPNKELAEKLHLQAPQHYPDANHKPEMAIALTPFQGLCGFRPVEEIVTFLKKVPEFQFLIGDEAATHLKQTMSHDSQAVASSLQSCFSHLMKSEKKVVVEQLNLLVKRISQQAAAGNNMEDIFGELLLQLHQQYPGDIGCFAIYFLNLLTLKPGEAMFLEANVPHAYLKGDCVECMACSDNTVRAGLTPKFIDVPTLCEMLSYTPSSSKDRLFLPTRSQEDPYLSIYDPPVPDFTIMKTEVPGSVTEYKVLALDSASILLMVQGTVIASTPTTQTPIPLQRGGVLFIGANESVSLKLTEPKDLLIFRACCLL [MPI]	0.389	50.7	50.4	-0.154	-0.708	-0.365
MKIKDAKKPSFPWFGMDIGGTLVKLSYFEPIDITAEEEQEEVESLKSIRKYLTSNVAYGSTGIRDVHLELKDLTLFGRRGNLHFIRFPTQDLPTFIQMGRDKNFSTLQTVLCATGGGAYKFEKDFRTIGNLHLHKLDELDCLVKGLLYIDSVSFNGQAECYYFANASEPERCQKMPFNLDDPYPLLVVNIGSGVSILAVHSKDNYKRVTGTSLGGGTFLGLCSLLTGCESFEEALEMASKGDSTQADKLVRDIYGGDYERFGLPGWAVASSFGNMIYKEKRESVSKEDLARATLVTITNNIGSVARMCAVNEKINRVVFVGNFLRVNTLSMKLLAYALDYWSKGQLKALFLEHEGYFGAVGALLGLPNFS [PANK3]	-0.124	53.4	53.9	-0.137	-1.56	-0.972
MLGMIKNSLFGSVETWPWQVLSKGDKEEVAYEERACEGGKFATVEVTDKPVDEALREAMPKVAKYAGGTNDKGIGMGMTVPISFAVFPNEDGSLQKKLKVWFRIPNQFQSDPPAPSDKSVKIEEREGITVYSMQFGGYAKEADYVAQATRLRAALEGTATYRGDIYFCTGYDPPMKPYGRRNEIWLLKT [HEBP1]	0.27	52.9	53.3	0.0399	-1.08	-2.04
MAQKPLRLLACGDVEGKFDILFNRVQAIQKKSGNFDLLLCVGNFFGSTQDAEWEEYKTGIKKAPIQTYVLGANNQETVKYFQDADGCELAENITYLGRKGIFTGSSGLQIVYLSGTESLNEPVPGYSFSPKDVSSLRMMLCTTSQFKGVDILLTSPWPKCVGNFGNSSGEVDTKKCGSALVSSLATGLKPRYHFAALEKTYYERLPYRNHIILQENAQHATRFIALANVGNPEKKKYLYAFSIVPMKLMDAAELVKQPPDVTENPYRKSGQEASIGKQILAPVEESACQFFFDLNEKQGRKRSSTGRDSKSSPHPKQPRKPPQPPGPCWFCLASPEVEKHLVVNIGTHCYLALAKGGLSDDHVLILPIGHYQSVVELSAEVVEEVEKYKATLRRFFKSRGKWCVVFERNYKSHHLQLQVIPVPISCSTTDDIKDAFITQAQEQQIELLEIPEHSDIKQIAQPGAAYFYVELDTGEKLFHRIKKNFPLQFGREVLASEAILNVPDKSDWRQCQISKEDEETLARRFRKDFEPYDFTLDD [CWF19L1]	0.0176	50.4	50.7	-0.143	0.0624	0.97
MEDYLQGCRAALQESRPLHVVLGNEACDLDSTVSALALAFYLAKTTEAEEVFVPVLNIKRSELPLRGDIVFFLQKVHIPESILIFRDEIDLHALYQAGQLTLILVDHHILSKSDTALEEAVAEVLDHRPIEPKHCPPCHVSVELVGSCATLVTERILQGAPEILDRQTAALLHGTIILDCVNMDLKIGKATPKDSKYVEKLEALFPDLPKRNDIFDSLQKAKFDVSGLTTEQMLRKDQKTIYRQGVKVAISAIYMDLEAFLQRSNLLADLHAFCQAHSYDVLVAMTIFFNTHNEPVRQLAIFCPHVALQTTICEVLERSHSPPLKLTPASSTHPNLHAYLQGNTQVSRKKLLPLLQEALSAYFDSMKIPSGQPETADVSREQVDKELDRASNSLISGLSQDEEDPPLPPTPMNSLVDECPLDQGLPKLSAEAVFEKCSQISLSQSTTASLSKK [PRUNE]	0.182	50.3	49.6	-0.0758	0.764	0.775
UBR5	-0.142	47.5	49.8	-0.155	1.78	5.42
MQTFLKGKRVGYWLSEKKIKKLNFQAFAELCRKRGMEVVQLNLSRPIEEQGPLDVIIHKLTDVILEADQNDSQSLELVHRFQEYIDAHPETIVLDPLPAIRTLLDRSKSYELIRKIEAYMEDDRICSPPFMELTSLCGDDTMRLLEKNGLTFPFICKTRVAHGTNSHEMAIVFNQEGLNAIQPPCVVQNFINHNAVLYKVFVVGESYTVVQRPSLKNFSAGTSDRESIFFNSHNVSKPESSSVLTELDKIEGVFERPSDEVIRELSRALRQALGVSLFGIDIIINNQTGQHAVIDINAFPGYEGVSEFFTDLLNHIATVLQGQSTAMAATGDVALLRHSKLLAEPAGGLVGERTCSASPGCCGSMMGQDAPWKAEADAGGTAKLPHQRLGCNAGVSPSFQQHCVASLATKASSQ [ITPK1]	0.0668	51.9	51.3	-0.011	0.291	-1.14

Reference: the supplement of paper PMC5998384
